Ends that are not written are not given here. * marks the point of attachment. Biotin = O=C1N[C@H]2[C@H](CS[C@H]2CCCCC(=O)*)N1
How the values were obtained:
[1] = target: T1, GST-NeDLG PDZ domain fusion protein (presynaptic protein sao102, neuroendocrine-dlg; PDZ domains 1-2 of 3) (UniProt P08515 1-218 = GST); assay: G assay, peptide titrated on immobilized GST-PDZ, saturation fit (apparent affinity)
T1 construct: also called NeDLG1
Source text: (§1) FIGS. 2A and 2B show the Apparent Affinity Determination for PDZ-Ligand Interactions. […] The binding to GST alone (<0.2 OD units) was subtracted from the binding to the fusion proteins to obtain the signal at each peptide concentration.

[2] = target: T2, GST-PSD95 PDZ domain fusion protein (human post-synaptic density protein 95 AA387-724; PDZ domains 1-3 of 3) (human, UniProt P08515 1-218 = GST); assay: as above
Source text: as §1

[3] = target: GST-PTN-4 PDZ domain fusion protein (protein-tyrosine phosphatase meg1 AA774-862; PDZ domain 1 of 1) (UniProt P08515 1-218 = GST); assay: A/G assays
[4] = target: T3, GST-MPP1 PDZ domain fusion protein (55 Kd erythrocyte membrane protein AA101-186; PDZ domain 1 of 1) (UniProt P08515 1-218 = GST); assay: A/G assays
[5] = target: T4, GST-TAX33 PDZ domain fusion protein (tax interaction protein 33 AA73-162; PDZ domain 1 of 1) (UniProt P08515 1-218 = GST); assay: A/G assays
T4 construct: also called TX33

[6] = target: T5, GST-SYN1a PDZ domain fusion protein (alpha1-syntrophin AA96-189; PDZ domain 1 of 1) (UniProt P08515 1-218 = GST); assay: A/G assays
T5 construct: also called SYN 1 alpha; SYNTR 1 alpha

[7] = target: T6, GST-TIAM1 PDZ domain fusion protein (T-lymphoma invasion and metastasis inducing protein 1 AA1001-1088); PDZ 1 … (UniProt P08515 1-218 = GST); assay: A/G assays
[8] = target: GST-LIMK2 PDZ domain fusion protein (human LIM domain kinase 2 AA185-275; PDZ domain 1 of 1) (human, UniProt P08515 1-218 = GST); assay: A/G assays
[9] = target: T7, GST-CBP PDZ domain fusion protein (Cytohesin binding protein HE AA85-175; PDZ domain 1 of 1) (UniProt P08515 1-218 = GST); assay: A/G assays
T7 construct: also called Prot

[10] = target: T8, GST-prIL16 PDZ domain fusion protein (putative interleukin 16 precursor AA170-383; PDZ domains 1-2 of 2) (UniProt P08515 1-218 = GST); assay: A/G assays
[11] = target: GST-LIM PDZ domain fusion protein (Human LIM protein AA29-112; PDZ domain 1 of 1) (human, UniProt P08515 1-218 = GST); assay: A/G assays
[12] = target: T9, GST-TAX2 PDZ domain fusion protein (human tax interaction protein 2 AA54-140; PDZ domain 1 of 1) (human, UniProt P08515 1-218 = GST); assay: A/G assays
T9 construct: also called TX 2

[13] = target: T10, GST-KIAA0316 PDZ domain fusion protein (KIAA0316 AA197-284; PDZ domain 1 of 1) (UniProt P08515 1-218 = GST); assay: A/G assays
T10 construct: also called K316

[14] = target: GST-MINT3 PDZ domain fusion protein (human MINT3 AA11-52; PDZ domain 1 of 1) (human, UniProt P08515 1-218 = GST); assay: A/G assays
[15] = target: T11, GST-TAX40 PDZ domain fusion protein (human tax interaction protein 40 AA35-137; PDZ domain 1 of 1) (human, UniProt P08515 1-218 = GST); assay: A/G assays
T11 construct: also called TX 40

[16] = target: T12, GST-DVL1 PDZ domain fusion protein (human dishevelled segment polarity protein homolog AA248-340); PDZ domain … (human, UniProt P08515 1-218 = GST); assay: A/G assays
[17] = target: T13, GST-MPP2 PDZ domain fusion protein (maguk p55 subfamily member 2 (DLG2) AA185-273; PDZ domain 1 of 1) (UniProt P08515 1-218 = GST); assay: A/G assays
T13 construct: also called MMP2

[18] = target: T14, GST-CASK PDZ domain fusion protein (CASK AA495-584; PDZ domain 1 of 1) (mouse, UniProt P08515 1-218 = GST); assay: A/G assays
T14 construct: also called mCASK

[19] = target: T15, GST-KIAA0303 PDZ domain fusion protein (KIAA0303 AA652-742; PDZ domain 1 of 1) (UniProt P08515 1-218 = GST); assay: A/G assays
T15 construct: also called K303

[20] = target: T16, GST-RGS12 PDZ domain fusion protein (human regulator of G-protein signalling 12 AA35-103; PDZ domain 1 of 1) (human, UniProt P08515 1-218 = GST); assay: A/G assays
T16 construct: also called RSG12

[21] = target: T17, GST-KIAA0559 PDZ domain fusion protein (KIAA0559 AA766-870; PDZ1 of 1) (UniProt P08515 1-218 = GST); assay: A/G assays
T17 construct: also called K559

[22] = target: T18, GST-TAX43 PDZ domain fusion protein (human tax interaction protein 43 AA15-85; PDZ domain 1 of 1) (human, UniProt P08515 1-218 = GST); assay: A/G assays
T18 construct: also called TX 43

[23] = target: T19, GST-AF6 PDZ domain fusion protein (af-6 protein AA985-1077; PDZ domain 1 of 1) (UniProt P08515 1-218 = GST); assay: A/G assays
[24] = target: GST-NOS1 PDZ domain fusion protein (human neuronal nitric oxide synthase; PDZ domain 1 of 1) (human, UniProt P08515 1-218 = GST); assay: A/G assays
[25] = target: T3, GST-MPP1 PDZ domain fusion protein (55 …); assay: G assay
[26] = target: T8, GST-prIL16 PDZ domain fusion protein …; assay: G assay
[27] = target: T1, GST-NeDLG PDZ domain fusion protein …; assay: A/G assays
[28] = target: T2, GST-PSD95 PDZ domain fusion protein …; assay: A/G assays
[29] = target: T20, GST-41.8 kD PDZ domain fusion protein (hypothetical 41.8 kD protein AA4-85; PDZ domain 1 of 1) (UniProt P08515 1-218 = GST); assay: A/G assays
T20 construct: also called hypoth

[30] = target: T2, GST-PSD95 PDZ domain fusion protein …; assay: A and G assays
[31] = target: T1, GST-NeDLG PDZ domain fusion protein …; assay: G assay
[32] = target: T14, GST-CASK PDZ domain fusion protein …; assay: G assay
[33] = target: T3, GST-MPP1 PDZ domain fusion protein (55 …); assay: A assay
[34] = target: T5, GST-SYN1a PDZ domain fusion protein …; assay: A assay
[35] = target: T6, GST-TIAM1 PDZ domain fusion protein …; assay: A assay
[36] = target: T8, GST-prIL16 PDZ domain fusion protein …; assay: A assay
[37] = target: T11, GST-TAX40 PDZ domain fusion protein …; assay: A assay
[38] = target: T12, GST-DVL1 PDZ domain fusion protein …; assay: A assay
[39] = target: T20, GST-41.8 kD PDZ domain fusion protein …; assay: A assay
[40] = target: T16, GST-RGS12 PDZ domain fusion protein …; assay: A assay
[41] = target: T18, GST-TAX43 PDZ domain fusion protein …; assay: A assay
[42] = target: T19, GST-AF6 PDZ domain fusion protein (af-6 …); assay: A assay

T14 sequence (P08515 1-218, tags or fused parts left off): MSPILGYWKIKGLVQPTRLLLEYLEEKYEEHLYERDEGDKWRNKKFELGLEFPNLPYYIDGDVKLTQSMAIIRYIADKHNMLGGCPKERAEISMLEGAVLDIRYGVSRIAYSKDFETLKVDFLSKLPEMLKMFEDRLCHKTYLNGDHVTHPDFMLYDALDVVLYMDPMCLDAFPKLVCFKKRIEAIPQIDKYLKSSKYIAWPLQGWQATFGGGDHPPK
T13 sequence (P08515 1-218, tags or fused parts left off): as above
T18 sequence (P08515 1-218, tags or fused parts left off): as above
GST-PTN-4 PDZ domain fusion protein (protein-tyrosine phosphatase meg1 AA774-862; PDZ domain 1 of 1), sequence (P08515 1-218, tags or fused parts left off): as above
T7 sequence (P08515 1-218, tags or fused parts left off): as above
T3 sequence (P08515 1-218, tags or fused parts left off): as above
GST-LIM PDZ domain fusion protein (Human LIM protein AA29-112; PDZ domain 1 of 1), sequence (P08515 1-218, tags or fused parts left off): as above
T5 sequence (P08515 1-218, tags or fused parts left off): as above
T16 sequence (P08515 1-218, tags or fused parts left off): as above
GST-LIMK2 PDZ domain fusion protein (human LIM domain kinase 2 AA185-275; PDZ domain 1 of 1), sequence (P08515 1-218, tags or fused parts left off): as above
T19 sequence (P08515 1-218, tags or fused parts left off): as above
T4 sequence (P08515 1-218, tags or fused parts left off): as above
T2 sequence (P08515 1-218, tags or fused parts left off): as above
T1 sequence (P08515 1-218, tags or fused parts left off): as above
T17 sequence (P08515 1-218, tags or fused parts left off): as above
T12 sequence (P08515 1-218, tags or fused parts left off): as above
GST-NOS1 PDZ domain fusion protein (human neuronal nitric oxide synthase; PDZ domain 1 of 1), sequence (P08515 1-218, tags or fused parts left off): as above
T6 sequence (P08515 1-218, tags or fused parts left off): as above
T10 sequence (P08515 1-218, tags or fused parts left off): as above
T9 sequence (P08515 1-218, tags or fused parts left off): as above
T11 sequence (P08515 1-218, tags or fused parts left off): as above

Biotin-KDITSDSENSNFRNEIQSLV [CD95 (Apo-1/Fas) C-terminal PL peptide AA13L, biotinylated]
no binding: binding result [3] | binding result [4] | binding result [5] | binding result [6] | binding result [7] | binding result [8] | binding result [9] | binding result [10] | binding result [11] | binding result [12] | binding result [13] | binding result [14] | binding result [15] | binding result [16] | binding result [17] | binding result [18] | binding result [19] | binding result [20] | binding result [21] | binding result [22] | binding result [23] | binding result [24]
54 µM: Kd [1]
85 µM: Kd [2]

Biotin-QFMTADETRNLQNVDMKIGV [CD44 (long form) C-terminal PL peptide AA9L, biotinylated]
no binding: binding result [3] | binding result [5] | binding result [6] | binding result [7] | binding result [8] | binding result [9] | binding result [27] | binding result [11] | binding result [12] | binding result [13] | binding result [14] | binding result [28] | binding result [15] | binding result [16] | binding result [17] | binding result [29] | binding result [18] | binding result [19] | binding result [20] | binding result [21] | binding result [22] | binding result [23] | binding result [24]
binds: binding result [25] | binding result [26]

Biotin-SSAKSSNKNKKNKDKEYYV [Neurexin C-terminal PL peptide AA38L, biotinylated]
binds: binding result [30] | binding result [31] | binding result [32] | binding result [33] | binding result [34] | binding result [35] | binding result [36] | binding result [37] | binding result [38] | binding result [39] | binding result [40] | binding result [41] | binding result [42]
no binding: binding result [3] | binding result [5] | binding result [8] | binding result [9] | binding result [11] | binding result [12] | binding result [13] | binding result [14] | binding result [17] | binding result [19] | binding result [21] | binding result [24]
